Experimental data as given in publication doi:10.1101/2021.01.30.428949 (bioRxiv, 2021).
Where “and” joins values, the source holds several entries; their conditions need not be identical. Equal values may be shown once. Read-outs that look alike come from different tables or passages of the source.

Key:
Test in all cases: mass photometry
[1] = target: At2-CysPRXA C54S variant (Arabidopsis thaliana)
[2] = target: At2-CysPRXA F84R variant (Arabidopsis thaliana)
[3] = target: the molecule itself
[4] = target: the molecule itself; remark: listed apart in the source
[5] = target: the molecule itself; remark: listed apart in the source
[6] = target: the molecule itself; remark: listed apart in the source
[7] = target: the molecule itself; remark: listed apart in the source

In the case of At2-CysPRXA C54S variant (enzyme), the stoichiometry N [1] is reported as 10.

With At2-CysPRXA F84R variant (enzyme) the stoichiometry N [2] was 2 and 4.

B1: human peroxiredoxin HsPRX1, reduced (enzyme, UniProt Q06830 1-199, looked up)
chain: MSSGNAKIGHPAPNFKATAVMPDGQFKDISLSDYKGKYVVFFFYPLDFTFVCPTEIIAFSDRAEEFKKLNCQVIGASVDSHFCHLAWVNTPKKQGGLGPMNIPLVSDPKRTIAQDYGVLKADEGISFRGLFIIDDKGILRQITVNDLPVGRSVDETLRLVQAFQFTDKHGEVCPAGWKPGSDTIKPDVQKSKEYFSKQK
For B1, the “stoichiometry N” value [3] was 10.

B2: human peroxiredoxin HsPRX2, reduced (enzyme, UniProt P32119 1-198, looked up)
chain: MASGNARIGKPAPDFKATAVVDGAFKEVKLSDYKGKYVVLFFYPLDFTFVCPTEIIAFSNRAEDFRKLGCEVLGVSVDSQFTHLAWINTPRKEGGLGPLNIPLLADVTRRLSEDYGVLKTDEGIAYRGLFIIDGKGVLRQITVNDLPVGRSVDEALRLVQAFQYTDEHGEVCPAGWKPGSDTIKPNVDDSKEYFSKHN
With B2 the “stoichiometry N” value [3] was 2 and the “stoichiometry N” value [4] was 20.

B3: human peroxiredoxin HsPRX3, reduced (enzyme, UniProt P30048 62-256, looked up)
chain: APAVTQHAPYFKGTAVVNGEFKDLSLDDFKGKYLVLFFYPLDFTFVCPTEIVAFSDKANEFHDVNCEVVAVSVDSHFSHLAWINTPRKNGGLGHMNIALLSDLTKQISRDYGVLLEGSGLALRGLFIIDPNGVIKHLSVNDLPVGRSVEETLRLVKAFQYVETHGEVCPANWTPDSPTIKPSPAASKEYFQKVNQ
With B3 the “stoichiometry N” value [3] was 2 and the “stoichiometry N” value [4] was 40 and 20.

B4: At2-CysPRXA, oxidized (H2O2-treated) (enzyme, Arabidopsis thaliana, UniProt Q96291 66-266, looked up)
chain: KAQADDLPLVGNKAPDFEAEAVFDQEFIKVKLSDYIGKKYVILFFYPLDFTFVCPTEITAFSDRHSEFEKLNTEVLGVSVDSVFSHLAWVQTDRKSGGLGDLNYPLISDVTKSISKSFGVLIHDQGIALRGLFIIDKEGVIQHSTINNLGIGRSVDETMRTLQALQYIQENPDEVCPAGWKPGEKSMKPDPKLSKEYFSAI
modifications: disulfide bond of the peroxidatic cysteine (CysP54) with the resolving cysteine (CysR176)
B4 was tested, and the “stoichiometry N” value [5] was 2.

B5: At2-CysPRXA, hyperoxidized (H2O2 plus DTT) (enzyme, Arabidopsis thaliana, UniProt Q96291 66-266, looked up)
chain: KAQADDLPLVGNKAPDFEAEAVFDQEFIKVKLSDYIGKKYVILFFYPLDFTFVCPTEITAFSDRHSEFEKLNTEVLGVSVDSVFSHLAWVQTDRKSGGLGDLNYPLISDVTKSISKSFGVLIHDQGIALRGLFIIDKEGVIQHSTINNLGIGRSVDETMRTLQALQYIQENPDEVCPAGWKPGEKSMKPDPKLSKEYFSAI
modifications: C54 thiol hyperoxidized to a sulfinic acid residue
For B5, the “stoichiometry N” value [5] was 10.

B6: Arabidopsis thaliana 2-Cysteine peroxiredoxin A (At2-CysPRXA), wildtype, reduced (enzyme, UniProt Q96291 66-266, looked up)
chain: KAQADDLPLVGNKAPDFEAEAVFDQEFIKVKLSDYIGKKYVILFFYPLDFTFVCPTEITAFSDRHSEFEKLNTEVLGVSVDSVFSHLAWVQTDRKSGGLGDLNYPLISDVTKSISKSFGVLIHDQGIALRGLFIIDKEGVIQHSTINNLGIGRSVDETMRTLQALQYIQENPDEVCPAGWKPGEKSMKPDPKLSKEYFSAI
B6 was tested, and the “ratio of dimer units in the decameric fraction to those in the dimer fraction” value [6] was roughly 5 fold, the Kd [7] was less than 50 nM and the “stoichiometry N” value [7] was 20.
